Source: paper PMC10945755 (Proceedings of the National Academy of Sciences of the …, 2024)
Where two headings read alike, the source gives them in different places. Values belong to the binder of their own block, whether it stands above or below them.

B1: RB1CC1(1450-1594) (domain or fragment, UniProt Q8TDY2 1450-1594, looked up)
chain: HMLSEEKQRIMLLERTLQLKEEENKRLNQRLMSQSMSSVSSRHSEKIAIRDFQVGDLVLIILDERHDNYVLFTVSPTLYFLHSESLPALDLKPGEGASGASRRPWVLGKVMEKEYCQAKKAQNRFKVPLGTKFYRVKAVSWNKKV
B2: GABARAP (natural protein)
chain: MKFVYKEEHPFEKRRSEGEKIRKKYPDRVPVIVEKAPKARIGDLDKKKYLVPSDLTVGQFYFLIRKRIHLRAEDALFFFVNNVIPPTSATMGQLYQEHHEEDFFLYIAYSDESVYGL
B3: RB1CC1(1286-1395) (domain or fragment, UniProt Q8TDY2 1286-1395, looked up)
chain: SLVAELQEKLQEEKAKFLEQLEEQEKRKNEEMQNVRTSLIAEQQTNFNTVLTREKMRKENIINDLSDKLKSTMQQQERDKDLIESLSEDRARLLEEKKKLEEEVSKLRSS
B4: RB1CC1(1396-1594) (domain or fragment, UniProt Q8TDY2 1396-1594, looked up)
chain: SFVPSPYVATAPELYGACAPELPGESDRSAVETADEGRVDSAMETSMMSVQENIHMLSEEKQRIMLLERTLQLKEEENKRLNQRLMSQSMSSVSSRHSEKIAIRDFQVGDLVLIILDERHDNYVLFTVSPTLYFLHSESLPALDLKPGEGASGASRRPWVLGKVMEKEYCQAKKAQNRFKVPLGTKFYRVKAVSWNKKV
B5: RB1CC1(1343-1395) (domain or fragment, UniProt Q8TDY2 1343-1395, looked up)
chain: KENIINDLSDKLKSTMQQQERDKDLIESLSEDRARLLEEKKKLEEEVSKLRSS
B6: Trx-NAP1(1-75) (domain or fragment, UniProt Q9H6S1 1-75, looked up)
chain: MDALVEDDICILNHEKAHKRDTVTPVSIYSGDESVASHFALVTAYEDIKKRLKDSEKENSLLKKRIRFLEEKLIA
B7: NAP1(1-75) (domain or fragment, UniProt Q9H6S1 1-75, looked up)
chain: B6 chain

Experiments:
TAX1BP1(1-237) [1] = target: T1, TAX1BP1(1-237) (UniProt Q86VP1 1-237, labeled (label not named) in the spectral shift binding assay); assay: spectral shift binding assay
TAX1BP1(1-237) [2] = target: T1, TAX1BP1(1-237); assay: SEC
[3] = target: TAX1BP1(1-237)/RB1CC1(1286-1395) complex (UniProt Q86VP1 1-237; Q8TDY2 1286-1395); assay: SEC
[4] = target: TAX1BP1(1-237)/NAP1(1-75)/RB1CC1(1286-1594) ternary complex (UniProt Q86VP1 1-237; Q9H6S1 1-75; Q8TDY2 1286-1594); assay: SEC
GABARAP = target: B2; assay: ITC
GABARAPL1 = GABARAPL1 (UniProt Q9H0R8 1-117); assay: ITC
GABARAPL2 = GABARAPL2 (UniProt P60520 1-117); assay: SEC
TAX1BP1(1-121) = TAX1BP1(1-121) (UniProt Q86VP1 1-121, 15N-labeled in the NMR titrations); assay: ITC
AUC = target: the molecule itself; assay: AUC
Trx-TAX1BP1(1-237) [5] = target: T2, Trx-TAX1BP1(1-237) (UniProt Q86VP1 1-237); assay: AUC
TAX1BP1(1-237) [6] = target: T1, TAX1BP1(1-237); assay: SEC; remark: listed apart in the source
crystal structure = target: the molecule itself; assay: crystal structure
Trx-TAX1BP1(1-237) [7] = target: T2, Trx-TAX1BP1(1-237); assay: SEC
Nano-RB1CC1(1286-1594) = Nano-RB1CC1(1286-1594) (UniProt Q8TDY2 1286-1594); assay: SEC
[8] = target: TAX1BP1(1-237)/RB1CC1(1286-1594) complex (Trx-TAX1BP1(1-237) with Nano-RB1CC1(1286-1594)) (UniProt Q86VP1 1-237; Q8TDY2 1286-1594); assay: SEC
[9] = target: TAX1BP1(1-237)/RB1CC1(1286-1594) R1375A (UniProt Q86VP1 1-237; Q8TDY2 1286-1594, R1375A); assay: SEC
TAX1BP1(1-237)/RB1CC1(1286-1594) R1375A, sequence (Q86VP1 1-237, stated change not applied, one chain of several): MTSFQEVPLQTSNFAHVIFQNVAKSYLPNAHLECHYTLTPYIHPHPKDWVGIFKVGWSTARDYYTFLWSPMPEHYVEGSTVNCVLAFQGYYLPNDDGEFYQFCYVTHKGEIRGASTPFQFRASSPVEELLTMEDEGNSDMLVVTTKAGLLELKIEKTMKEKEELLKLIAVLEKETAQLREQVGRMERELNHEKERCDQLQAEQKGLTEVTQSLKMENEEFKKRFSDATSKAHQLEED

T1 sequence (Q86VP1 1-237): as the sequence (Q86VP1 1-237, stated change not applied, one chain of several) above
T2 sequence (Q86VP1 1-237): as the sequence (Q86VP1 1-237, stated change not applied, one chain of several) above
TAX1BP1(1-237)/RB1CC1(1286-1395) complex, sequence (Q86VP1 1-237, one chain of several): as the sequence (Q86VP1 1-237, stated change not applied, one chain of several) above
TAX1BP1(1-237)/NAP1(1-75)/RB1CC1(1286-1594) ternary complex, sequence (Q86VP1 1-237, one chain of several): as the sequence (Q86VP1 1-237, stated change not applied, one chain of several) above
TAX1BP1(1-237)/RB1CC1(1286-1594) complex (Trx-TAX1BP1(1-237) with Nano-RB1CC1(1286-1594)), sequence (Q86VP1 1-237, one chain of several): as the sequence (Q86VP1 1-237, stated change not applied, one chain of several) above
GABARAPL1, sequence (Q9H0R8 whole entry): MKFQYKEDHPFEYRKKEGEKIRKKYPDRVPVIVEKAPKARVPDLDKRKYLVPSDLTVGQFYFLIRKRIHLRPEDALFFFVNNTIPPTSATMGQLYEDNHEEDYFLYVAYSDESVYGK
GABARAPL2, sequence (P60520 whole entry): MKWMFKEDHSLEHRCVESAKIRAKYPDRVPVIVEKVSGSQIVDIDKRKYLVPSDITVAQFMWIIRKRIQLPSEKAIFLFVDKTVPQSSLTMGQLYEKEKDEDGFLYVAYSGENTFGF
TAX1BP1(1-121), sequence (Q86VP1 1-121): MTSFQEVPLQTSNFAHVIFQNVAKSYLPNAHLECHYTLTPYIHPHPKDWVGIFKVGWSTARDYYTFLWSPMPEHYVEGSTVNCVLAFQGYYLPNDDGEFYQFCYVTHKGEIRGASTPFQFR

Binder: B1
- Kd (TAX1BP1(1-237) [1]): > 136 µM

Binder: B2
- binding result (TAX1BP1(1-237) [2]): binds
- binding result [3]: binds
- binding result [4]: binds

- Kd (GABARAP): 4.07 µM
- Kd (GABARAPL1): 9.54 µM
- binding result (GABARAPL2): binds
Binder: SSPVEELLTMEDEGNSDMLVVTTKAGLLE (domain or fragment, UniProt Q86VP1 123-151, looked up) [TAX1BP1(123-151)]

Binder: B3
- Kd (TAX1BP1(1-121)): ~4.91 µM
- stoichiometry N (AUC): 2
- Kd (TAX1BP1(1-237) [1]): ~1.13 µM

- binding result (Trx-TAX1BP1(1-237) [5]): binds
- binding result (TAX1BP1(1-237) [6]): binds
Binder: ESVASHFALVTAYEDIKKRLKDSEKENSLLKKRIRFLEEKLIA (domain or fragment, UniProt Q9H6S1 33-75, looked up) [NAP1(33-75)]

- binding result (GABARAP): binds
Binder: EDEGNSDMLVVTTKAGLLE (domain or fragment, UniProt Q86VP1 133-151, looked up) [TAX1BP1(133-151)]

Binder: B4
- binding result (TAX1BP1(1-237) [2]): binds

Binder: B5
- stoichiometry N (crystal structure): 2

Binder: B6
- binding result (Trx-TAX1BP1(1-237) [7]): binds
- binding result (Nano-RB1CC1(1286-1594)): binds
- binding result [8]: binds

Binder: B7
- binding result [9]: binds
